Experimental data from publication PMC3939451.

What was measured:
[1] = steady-state immunoblot, HEK293; conditions: glycan lost
[2] = CHX chase, immunoblot, percent remaining; conditions: glycan lost; control: WT-ABCG8

Protein	expression_or_secretion ([1]; control: WT-ABCG5)	degradation_or_half_life [2]	expression_or_secretion ([1]; control: WT-ABCG8)
ABCG5: N584Q (protein) parent chain: MGDLSSLTPGGSMGLQVNRGSQSSLEGAPATAPEPHSLGILHASYSVSHRVRPWWDITSCRQQWTRQILKDVSLYVESGQIMCILGSSGSGKTTLLDAMSGRLGRAGTFLGEVYVNGRALRREQFQDCFSYVLQSDTLLSSLTVRETLHYTALLAIRRGNPGSFQKKVEAVMAELSLSHVADRLIGNYSLGGISTGERRRVSIAAQLLQDPKVMLFDEPTTGLDCMTANQIVVLLVELARRNRIVVLTIHQPRSELFQLFDKIAILSFGELIFCGTPAEMLDFFNDCGYPCPEHSNPFDFYMDLTSVDTQSKEREIETSKRVQMIESAYKKSAICHKTLKNIERMKHLKTLPMVPFKTKDSPGVFSKLGVLLRRVTRNLVRNKLAVITRLLQNLIMGLFLLFFVLRVRSNVLKGAIQDRVGLLYQFVGATPYTGMLNAVNLFPVLRAVSDQESQDGLYQKWQMMLAYALHVLPFSVVATMIFSSVCYWTLGLHPEVARFGYFSAALLAPHLIGEFLTLVLLGIVQNPNIVNSVVALLSIAGVLVGSGFLRNIQEMPIPFKIISYFTFQKYCSEILVVNEFYGLNFTCGSSNVSVTTNPMCAFTQGIQFIEKTCPGATSRFTMNFLILYSFIPALVILGIVVFKIRDHLISR	decreases		
ABCG5: N591Q (protein) parent chain: MGDLSSLTPGGSMGLQVNRGSQSSLEGAPATAPEPHSLGILHASYSVSHRVRPWWDITSCRQQWTRQILKDVSLYVESGQIMCILGSSGSGKTTLLDAMSGRLGRAGTFLGEVYVNGRALRREQFQDCFSYVLQSDTLLSSLTVRETLHYTALLAIRRGNPGSFQKKVEAVMAELSLSHVADRLIGNYSLGGISTGERRRVSIAAQLLQDPKVMLFDEPTTGLDCMTANQIVVLLVELARRNRIVVLTIHQPRSELFQLFDKIAILSFGELIFCGTPAEMLDFFNDCGYPCPEHSNPFDFYMDLTSVDTQSKEREIETSKRVQMIESAYKKSAICHKTLKNIERMKHLKTLPMVPFKTKDSPGVFSKLGVLLRRVTRNLVRNKLAVITRLLQNLIMGLFLLFFVLRVRSNVLKGAIQDRVGLLYQFVGATPYTGMLNAVNLFPVLRAVSDQESQDGLYQKWQMMLAYALHVLPFSVVATMIFSSVCYWTLGLHPEVARFGYFSAALLAPHLIGEFLTLVLLGIVQNPNIVNSVVALLSIAGVLVGSGFLRNIQEMPIPFKIISYFTFQKYCSEILVVNEFYGLNFTCGSSNVSVTTNPMCAFTQGIQFIEKTCPGATSRFTMNFLILYSFIPALVILGIVVFKIRDHLISR	decreases		
ABCG5: N584Q/N591Q (protein) parent chain: MGDLSSLTPGGSMGLQVNRGSQSSLEGAPATAPEPHSLGILHASYSVSHRVRPWWDITSCRQQWTRQILKDVSLYVESGQIMCILGSSGSGKTTLLDAMSGRLGRAGTFLGEVYVNGRALRREQFQDCFSYVLQSDTLLSSLTVRETLHYTALLAIRRGNPGSFQKKVEAVMAELSLSHVADRLIGNYSLGGISTGERRRVSIAAQLLQDPKVMLFDEPTTGLDCMTANQIVVLLVELARRNRIVVLTIHQPRSELFQLFDKIAILSFGELIFCGTPAEMLDFFNDCGYPCPEHSNPFDFYMDLTSVDTQSKEREIETSKRVQMIESAYKKSAICHKTLKNIERMKHLKTLPMVPFKTKDSPGVFSKLGVLLRRVTRNLVRNKLAVITRLLQNLIMGLFLLFFVLRVRSNVLKGAIQDRVGLLYQFVGATPYTGMLNAVNLFPVLRAVSDQESQDGLYQKWQMMLAYALHVLPFSVVATMIFSSVCYWTLGLHPEVARFGYFSAALLAPHLIGEFLTLVLLGIVQNPNIVNSVVALLSIAGVLVGSGFLRNIQEMPIPFKIISYFTFQKYCSEILVVNEFYGLNFTCGSSNVSVTTNPMCAFTQGIQFIEKTCPGATSRFTMNFLILYSFIPALVILGIVVFKIRDHLISR	decreases		
ABCG8: N619Q (protein) parent chain: MAGKAAEERGLPKGATPQDTSGLQDRLFSSESDNSLYFTYSGQPNTLEVRDLNYQVDLASQVPWFEQLAQFKMPWTSPSCQNSCELGIQNLSFKVRSGQMLAIIGSSGCGRASLLDVITGRGHGGKIKSGQIWINGQPSSPQLVRKCVAHVRQHNQLLPNLTVRETLAFIAQMRLPRTFSQAQRDKRVEDVIAELRLRQCADTRVGNMYVRGLSGGERRRVSIGVQLLWNPGILILDEPTSGLDSFTAHNLVKTLSRLAKGNRLVLISLHQPRSDIFRLFDLVLLMTSGTPIYLGAAQHMVQYFTAIGYPCPRYSNPADFYVDLTSIDRRSREQELATREKAQSLAALFLEKVRDLDDFLWKAETKDLDEDTCVESSVTPLDTNCLPSPTKMPGAVQQFTTLIRRQISNDFRDLPTLLIHGAEACLMSMTIGFLYFGHGSIQLSFMDTAALLFMIGALIPFNVILDVISKCYSERAMLYYELEDGLYTTGPYFFAKILGELPEHCAYIIIYGMPTYWLANLRPGLQPFLLHFLLVWLVVFCCRIMALAAAALLPTFHMASFFSNALYNSFYLAGGFMINLSSLWTVPAWISKVSFLRWCFEGLMKIQFSRRTYKMPLGNLTIAVSGDKILSVMELDSYPLYAIYLIVIGLSGGFMVLYYVSLRFIKQKPSQDW		decreases, 44.40% vs. 43.95% at 2 hrs; 26.01% vs. 29.36% at 4 hrs	decreases
